In paper PMC8428864:

Target: photosystem I from Cyanobacterium aponinum 0216 (one monomer of the trimer, 11 protein subunits) (Cyanobacterium aponinum 0216 (endogenous)) (UniProt K9Z0B2)
Assay: cryo-EM structure; single-particle cryo-EM of the purified PSI trimer, C3 symmetry imposed; 30 mM Tricine–NaOH pH 8, 150 mM NaCl, 0.02% DDM; three monomers in the trimer

- stoichiometry N: 3
Substance: photosystem I from Cyanobacterium aponinum 0216 (one monomer of the trimer, 11 protein subunits) (from UniProt K9Z0B2 1-750; K9Z2J7 1-738; K9Z1N0 1-81; K9Z9J3 1-39; K9Z7Y0 1-163) (complex)
